From US20150104459A1
“And” between values parts separate entries of the source, which are not always exact repeats. Equal values may be shown once.

How the values were obtained:
Details in all cases: remark: other sources report otherwise
[1] = molecular target: recombinant soluble homotrimeric HA of A/Japan/305/57 (H2N2) (Influenza A virus A/Japan/305/1957 (H2N2)); assay: HA microarray, BCC supernatant
[2] = molecular target: recombinant soluble homotrimeric HA of A/Wisconsin/67/05 (H3N2) (Influenza A virus A/Wisconsin/67/2005 (H3N2)); assay: HA microarray, BCC supernatant
[3] = molecular target: recombinant soluble homotrimeric HA of A/duck/Yangzhou/02/2005 (H8N4) (Influenza A virus A/duck/Yangzhou/02/2005 (H8N4)); assay: HA microarray, BCC supernatant
[4] = molecular target: recombinant homotrimeric HA, A/Japan/305/57 H2N2 (Influenza A virus A/Japan/305/57 (H2N2)); assay: trimeric HA microarray; transfection supernatant set 3
[5] = molecular target: recombinant homotrimeric HA, A/Vietnam/1203/04 H5N1 (Influenza A virus A/Vietnam/1203/04 (H5N1)); assay: as above
[6] = molecular target: recombinant soluble homotrimeric HA of A/Anhui/1/05 (H5N1) (Influenza A virus A/Anhui/1/2005 (H5N1)); assay: HA microarray, BCC supernatant
[7] = molecular target: recombinant soluble homotrimeric HA of A/California/4/09 (H1N1) (Influenza A virus A/California/04/2009 (H1N1)); assay: HA microarray, BCC supernatant
[8] = molecular target: recombinant soluble homotrimeric HA of A/Hong Kong/2108/03 (H9N2) (Influenza A virus A/Hong Kong/2108/2003 (H9N2)); assay: HA microarray, BCC supernatant
[9] = molecular target: recombinant soluble homotrimeric HA of A/Indonesia/5/05 (H5N1) (Influenza A virus A/Indonesia/5/2005 (H5N1)); assay: HA microarray, BCC supernatant
[10] = molecular target: recombinant soluble homotrimeric HA of A/Netherlands/219/03 (H7N7) (Influenza A virus A/Netherlands/219/03 (H7N7)); assay: HA microarray, BCC supernatant
[11] = molecular target: recombinant soluble homotrimeric HA of A/Solomon Islands/3/06 (H1N1) (Influenza A virus A/Solomon Islands/3/2006 (H1N1)); assay: HA microarray, BCC supernatant
[12] = molecular target: recombinant soluble homotrimeric HA of A/Vietnam/1203/04 (H5N1) (Influenza A virus A/Vietnam/1203/2004 (H5N1)); assay: HA microarray, BCC supernatant
[13] = molecular target: recombinant soluble homotrimeric HA of A/chicken/Vietnam/NCVD-016/08 (H5N1) (Influenza A virus A/chicken/Vietnam/NCVD-016/2008 (H5N1)); assay: HA microarray, BCC supernatant
[14] = molecular target: recombinant soluble homotrimeric HA of A/northern shoveler/California/HKWF115/2007 (H6N1) (Influenza A virus A/northern shoveler/California/HKWF115/2007 (H6N1)); assay: HA microarray, BCC supernatant
[15] = molecular target: recombinant soluble homotrimeric HA of A/swine/Ontario/01911-2/99 (H4N6) (Influenza A virus A/Swine/Ontario/01911-2/99 (H4N6)); assay: HA microarray, BCC supernatant
[16] = molecular target: recombinant soluble homotrimeric HA, A/Anhui/1/05 (H5N1) (influenza A virus A/Anhui/1/2005 (H5N1)); assay: microarray, trimeric HA, transfection supernatant
[17] = molecular target: recombinant soluble homotrimeric HA, A/Hong Kong/156/97 (H5N1) (influenza A virus A/Hong Kong/156/97 (H5N1)); assay: microarray, trimeric HA, transfection supernatant
[18] = molecular target: recombinant soluble homotrimeric HA, A/Netherlands/219/03 (H7N7) (influenza A virus A/Netherlands/219/03 (H7N7)); assay: microarray, trimeric HA, transfection supernatant
[19] = molecular target: recombinant soluble homotrimeric HA, A/chicken/Vietnam/NCVD-016/08 (H5N1) (influenza A virus A/chicken/Vietnam/NCVD-016/2008 (H5N1)); assay: microarray, trimeric HA, transfection supernatant
[20] = molecular target: recombinant soluble homotrimeric HA, A/duck/Yangzhou/02/2005 (H8N4) (influenza A virus A/duck/Yangzhou/02/2005 (H8N4)); assay: microarray, trimeric HA, transfection supernatant
[21] = molecular target: recombinant soluble homotrimeric HA, A/northern shoveler/California/HKWF115/2007 (H6N1) (influenza A virus A/northern shoveler/California/HKWF115/2007 (H6N1)); assay: microarray, trimeric HA, transfection supernatant
[22] = molecular target: recombinant soluble homotrimeric HA of A/Egypt/3300-NAMRU3/08 (H5N1) (Influenza A virus A/Egypt/3300-NAMRU3/2008 (H5N1)); assay: HA microarray, BCC supernatant
[23] = molecular target: recombinant soluble homotrimeric HA, A/Hong Kong/1073/99 (H9N2) (influenza A virus A/Hong Kong/1073/99 (H9N2)); assay: microarray, trimeric HA, transfection supernatant
[24] = molecular target: recombinant homotrimeric HA, A/swine/Ontario/01911-2/99 H4N6 (Influenza A virus A/swine/Ontario/01911-2/99 (H4N6)); assay: trimeric HA microarray; transfection supernatant set 5
[25] = molecular target: recombinant homotrimeric HA, A/Solomon Islands/3/06 H1N1 (Influenza A virus A/Solomon Islands/3/06 (H1N1)); assay: trimeric HA microarray; transfection supernatant set 3

Binder	Trimeric HA Binding RLU [1]	Trimeric HA Binding RLU [2]	Trimeric HA Binding RLU [3]	Trimeric HA Binding RLU [6]	Trimeric HA Binding RLU [7]	Trimeric HA Binding RLU [9]	Trimeric HA Binding RLU [11]	Trimeric HA Binding RLU [12]	Trimeric HA Binding RLU [13]	Trimeric HA Binding RLU [14]	Trimeric HA Binding RLU [15]	Trimeric HA Binding RLU [17]	Trimeric HA Binding RLU [19]	Trimeric HA Binding RLU [21]	Trimeric HA Binding RLU [22]	further results
TCN-531 (5091_H13) (antibody, V domains shown) VH: EVQLVESGGDLVQPGRSLKLSCTGSGFTFGDYGVTWVRQAPGKGLEWVGFIRTRPWGGTADTAASVKGRFTISRDDSKSLAYLQMNSLKTEDTAVYYCCRDAPPNVEVASMTNWYFDLWGRGTLVTVSS VL: DIQLTQSPSSLSASVGDRVTITCRASQGILNCLAWYQQKPGKVPNLLMYAASTLQSGVPSRFSGSGFGTDFTLTISSLQPEDVATYYCQTYGGVSTFGGGTKVEIR	410 RLU	7090 RLU	3120 RLU													Trimeric HA Binding: RLU [4]: 489 RLU; Trimeric HA Binding: RLU [5]: 2410 RLU
TCN-557 (5081_A04) (antibody, V domains shown) VH: QVQLVQSGAEVKKPGASVKVSCKASGHTFTGYYIHWVRQAPGQGLEWMGWINPDSGATSSAQNFQGRVTMTGDTSSSTAYMELSRLSFDDTAVYYCARVLFTSPFDFWGEGTLVTVSS VL: QAVVTQEPSLAVSPGGTVTLTCGSSTGAVTRGHYPYWFQQKPGQAPRALIYDSAGNRHSWTPARFSGSLLGGKAALTLSGAQPEDEAEYYCLLSYSGVWVFGGGTKLTVL	43400 RLU	10200 RLU	50100 RLU	46000 RLU	17600 RLU	45200 RLU	40700 RLU	47300 RLU	45500 RLU	24400 RLU	27000 RLU	27100 RLU	23300 RLU	49600 RLU		Trimeric HA Binding RLU [8]: 35300 RLU; Trimeric HA Binding RLU [10]: 6780 RLU; Trimeric HA Binding RLU [16]: 20000 RLU; Trimeric HA Binding RLU [18]: 53700 RLU; Trimeric HA Binding RLU [20]: 24000 RLU
TCN-523 (5248_A17) (antibody, V domains shown) VH: QVQLVQSGAEVKKPGSSVKVSCKASGGSFSNYAFSWVRQAPGQGLEWMGGTIPLLGTTNYAQKFQGRVTISADQFTSTAYMELGSLRSEDTAVYYCTRRKMTTAFDSWGQGTLVTVSS VL: QPVLTQPPSASASLGASVTLTCTLSSAYSNYKVDWYQQRPGKGPRFVMRVGTGGIVGSKGDGIPDRFSVLGSGLNRYLTIKNIQEEDESDYHCGADHGSGSNFVSPYVFGGGTKLTVL	5110 RLU			5700 RLU	34700 RLU	45800 RLU	37900 RLU	3380 RLU	48900 RLU	46900 RLU		28400 RLU	18900 RLU and 24000 RLU and 51300 RLU	29400 RLU and 25100 RLU and 46900 RLU	36500 RLU	Trimeric HA Binding RLU [23]: 24200 RLU and 24600 RLU
TCN-555 (5246_L16) (antibody, V domains shown) VH: QVQLVQSGAEVKRPGSSVKVSCTASGGIFRKNAISWVRQAPGQGLEWMGGIIAVFNTANYAQKFQNRVKITADESGNTAYMELSSLTSDDTAVYYCASHPKYFYGSGSYPDFWGQGTLVTVSS VL: QSALTQPRSVSGSPGQSITISCTGGSSDIGASNSVSWYQQHPGKAPKLVIFDVTERPSGVPHRFSGSKSGNTASLTVSGLQPDDEADYFCCAYGGKYLVVFGGGTKVTVL	2130 RLU	9800 RLU	18400 RLU	1500 RLU	44900 RLU	34500 RLU	26400 RLU	876 RLU	22300 RLU	49500 RLU	1950 RLU	36300 RLU	35200 RLU	28700 RLU	42700 RLU	Trimeric HA Binding: RLU [24]: 4520 RLU
TCN-535 (5246_P19) (antibody, V domains shown) VH: QVQLVQSGSEVKKPGTSVKVSCTASGSVFTNYGISWVRQAPGQGLEWMGGIIPLFGAAKYAQKFQGRVTITADESTKTVYMELSRLTSKDTAIYFCAKAPRVYEYYFDQWGQGTPVTVSS VL: EIVLTQSPGTLSLSPGERATLSCRASQSVSSSQLAWYQQKPGQAPRLIIYGASTRATGIPDRFSGSGSGTDFTLTIGRLEPEDFAVFFCQQYSTSPPTFGQGTKVDFK	26100 RLU	34300 RLU	36600 RLU	6880 RLU	48600 RLU	45600 RLU	39400 RLU	4740 RLU	50000 RLU	48200 RLU	5950 RLU		20900 RLU	18100 RLU	39400 RLU	Trimeric HA Binding RLU [23]: 21200 RLU
TCN-529 (5297_H01) (antibody, V domains shown) VH: QITLRESGPTLVKPTQTLTLTCTFSGFSLSTNGVNVGWIRQPPGKALEWLALIYWDDDKRYSPSLKRRLTITKDTSKNQVVLTLTNMDPVDTATYYCAHRPDFYGDFEYWGPGTLVTVSS VL: QSALTQPASVSGSPGQSITISCTGSSSDIGGYNYVSWYQQHPGKAPKLMIYDVNNRPSGVSNRFSGSKSGNTASLTISGLQTDDEADYYCGSYTGSPHYVFGTGTKVTVL	435 RLU	51600 RLU					179 RLU		410 RLU							Trimeric HA Binding: RLU [25]: 43 RLU
TCN-540 (5060_F05) (antibody, V domains shown) VH: QVQLVQSGGGVVQPGRSLRLSCAASGFTFSSYAMHWVRQAPGKGLEWVAIISYDGNDQYYTDSVKGRFTISRDSSKVYLQMHRLRPEDTAVYYCAKEFETSGYFHGSFDYWGQGILVTVSS VL: QSALTQPASVSGSPGQSITISCTGTSSDVGGYNYVSWYQQHPGKAPKLLIYEVTNWPSGVSNRFSGSKSGNTASLTISGLQAEDEADYYCSSYAGSSTWVFGGGTRVTVL	2970 RLU	728 RLU	117 RLU	25 RLU	57 RLU	31 RLU	64 RLU		70 RLU	131 RLU		1550 RLU	1510 RLU	2460 RLU	1970 RLU	Trimeric HA Binding RLU [8]: 22 RLU; Trimeric HA Binding RLU [10]: 381 RLU; Trimeric HA Binding RLU [16]: 2190 RLU; Trimeric HA Binding RLU [18]: 4390 RLU; Trimeric HA Binding RLU [20]: 6080 RLU
